Assay results from patent US20120289467A1 (UNIVERSITY OF MARYLAND BALTIMORE, published 2012).
No end group written: not given here.

What was measured:
VE-cadherin fragment [1] = biological target: T1, VE-cadherin fragment (UniProt P33151 48-477, limits assumed); experiment: not stated on the sheet; the legend calls it the dissociation constant for the interaction with VE-cadherin
T1 construct: also called VE-caherin; immobilized VE-cadherin fragment
T1 sequence (looked up): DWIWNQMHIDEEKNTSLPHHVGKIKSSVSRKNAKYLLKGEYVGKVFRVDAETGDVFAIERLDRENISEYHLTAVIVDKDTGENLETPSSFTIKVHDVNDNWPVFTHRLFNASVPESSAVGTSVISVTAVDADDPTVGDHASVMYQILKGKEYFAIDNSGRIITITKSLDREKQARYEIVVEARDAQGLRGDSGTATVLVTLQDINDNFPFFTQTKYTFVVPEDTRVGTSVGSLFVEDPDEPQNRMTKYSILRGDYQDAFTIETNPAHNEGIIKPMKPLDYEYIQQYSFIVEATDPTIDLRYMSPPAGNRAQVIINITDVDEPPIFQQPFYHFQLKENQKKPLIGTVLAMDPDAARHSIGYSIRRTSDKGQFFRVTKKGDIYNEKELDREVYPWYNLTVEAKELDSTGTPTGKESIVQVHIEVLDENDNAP

[2] = biological target: T2, VE-cadherin fragment, P33151; experiment: plate assay read as absorbance at 450 nm, VE-cad(1-5) concentration varied (0-0.5 µM); format not described in the text
T2 chain: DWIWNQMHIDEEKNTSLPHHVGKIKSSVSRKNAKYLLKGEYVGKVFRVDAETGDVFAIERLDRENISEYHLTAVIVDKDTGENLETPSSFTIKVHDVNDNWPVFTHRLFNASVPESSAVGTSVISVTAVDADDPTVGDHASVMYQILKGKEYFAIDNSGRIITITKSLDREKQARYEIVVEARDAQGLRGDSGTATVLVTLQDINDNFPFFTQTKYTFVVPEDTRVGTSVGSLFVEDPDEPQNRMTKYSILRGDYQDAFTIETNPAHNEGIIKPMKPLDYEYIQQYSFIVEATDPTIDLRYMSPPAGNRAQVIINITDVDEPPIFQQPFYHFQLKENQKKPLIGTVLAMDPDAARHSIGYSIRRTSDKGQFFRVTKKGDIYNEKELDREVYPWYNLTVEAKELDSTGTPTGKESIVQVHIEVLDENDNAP

VE-cadherin fragment [3] = biological target: T1, VE-cadherin fragment; experiment: SPR (BIAcore), VE-cadherin fragment immobilized; monomeric peptide
Experimental: (§1) To test binding activities of fibrin beta chain derived peptides of the invention to VE-caherin, surface plasmon resonance (SPR) methods are, for example, used. SPR experiments are performed using, for example, a BIAcore 3000 biosensor (BIAcore AB, Uppsala, Sweden), which can be used to measure the association/dissociation of peptides or proteins in real-time (see, for example, Karlsson, R., and Falt, A. J. Immunol. Methods (1997) 200, 121-133; Hall, D. Anal. Biochem. (2001) 288, 109-125; see also Gorlatov et al. Biochemistry (2002) 41, 4107-4116 for other VE-cadherin binding assays including, for example, SPR IAsys Analysis based assays and ELISA based assays). An exemplary method is described in the following passage. VE-cadherin fragment is covalently coupled via epsilon-amino groups to the activated surface of a CM5 biosensor chip by the procedure described by, for example, Karlsson, R., and Falt, A. (J. Immunol. Methods (1997) 200, 121-133; see also Gorlatov et al. Biochemistry (2002) 41, 4107-4116). […] Samples comprising, for example, fibrin beta chain derived peptides β15-42, β15-64, and (β15-66)2, at different concentrations are injected in duplicate in at least three separate experiments and the association/dissociation between the immobilized and the added peptides is monitored as the change in the SPR response. […]

VE-cadherin fragment [4] = biological target: T1, VE-cadherin fragment; experiment: SPR (BIAcore), ratio of Kd values, reference β15-42
Experimental: as §1

VE-cadherin fragment [5] = biological target: T1, VE-cadherin fragment; experiment: not stated on the sheet; the legend calls it the dissociation constant for the interaction with VE-cadherin; remark: listed apart in the source
VE-cadherin fragment [6] = biological target: T1, VE-cadherin fragment; experiment: SPR (BIAcore), VE-cadherin fragment immobilized, peptide added up to 200 nM; dimeric peptide, added up to 200 nM
Experimental: as §1

B1: (β15-44)2 dimer peptide (peptide)
peptide: GHRPLDKKREEAPSLRPAPPPISGGGYRCG
modifications: also: homodimer, Cys43-Cys43 disulfide
notes: Synthetic homodimer of two identical 30-residue chains, linked by a Cys43-Cys43 disulfide bond; also called dimeric (β15-44)2
- Kd (VE-cadherin fragment [1]): 21 nM

Binder: GHRPLDKKREEAPSLRPAPPPISYCG (also: homodimer linked through added Cys25) [(β15-40)2 dimer peptide]
- EC50 (read off the curve) [2]: 40 nM

Binder: GHRPLDKKREEAPSLRPAPPPISGGGYR (also called monomeric β15-42) [β15-42 monomeric peptide]
- Kd (VE-cadherin fragment [3]): 252000 nM

B2: (β15-66)2 dimer peptide (peptide)
peptide: GHRPLDKKREEAPSLRPAPPPISGGGYRARPAKAAATQKKVERKAPDAGGCG
modifications: also: homodimer, Cys65-Cys65 disulfide
notes: Homodimer of two β15-66 chains, disulfide-linked via Cys65; Gly66 is not natural; also called dimeric (β15-66)2
- fold increase in affinity against β15-42 (VE-cadherin fragment [4]): 3600 fold
- Kd (VE-cadherin fragment [5]): 27 nM
- Kd (VE-cadherin fragment [6]): 70 nM
